Results published in PMC4499147.

Molecular target: RNF168 (UniProt Q8IYW5)
Assay: anti-HA co-IP, FLAG blot
Conditions: reference: wild-type HA-LSD1

Substance	binding against the reference (sites S131)	binding against the reference (sites S137)
LSD1 (from UniProt O60341) S131A	weaker	–
LSD1 (from UniProt O60341) S137A	–	weaker
